Measurements taken from publication PMC8136776.

Key:
mPOLγA A449T = biological target: T1, mPOLγA A449T (Mus musculus, UniProt P54099 26-1218, A450T); assay: EMSA
T1 sequence: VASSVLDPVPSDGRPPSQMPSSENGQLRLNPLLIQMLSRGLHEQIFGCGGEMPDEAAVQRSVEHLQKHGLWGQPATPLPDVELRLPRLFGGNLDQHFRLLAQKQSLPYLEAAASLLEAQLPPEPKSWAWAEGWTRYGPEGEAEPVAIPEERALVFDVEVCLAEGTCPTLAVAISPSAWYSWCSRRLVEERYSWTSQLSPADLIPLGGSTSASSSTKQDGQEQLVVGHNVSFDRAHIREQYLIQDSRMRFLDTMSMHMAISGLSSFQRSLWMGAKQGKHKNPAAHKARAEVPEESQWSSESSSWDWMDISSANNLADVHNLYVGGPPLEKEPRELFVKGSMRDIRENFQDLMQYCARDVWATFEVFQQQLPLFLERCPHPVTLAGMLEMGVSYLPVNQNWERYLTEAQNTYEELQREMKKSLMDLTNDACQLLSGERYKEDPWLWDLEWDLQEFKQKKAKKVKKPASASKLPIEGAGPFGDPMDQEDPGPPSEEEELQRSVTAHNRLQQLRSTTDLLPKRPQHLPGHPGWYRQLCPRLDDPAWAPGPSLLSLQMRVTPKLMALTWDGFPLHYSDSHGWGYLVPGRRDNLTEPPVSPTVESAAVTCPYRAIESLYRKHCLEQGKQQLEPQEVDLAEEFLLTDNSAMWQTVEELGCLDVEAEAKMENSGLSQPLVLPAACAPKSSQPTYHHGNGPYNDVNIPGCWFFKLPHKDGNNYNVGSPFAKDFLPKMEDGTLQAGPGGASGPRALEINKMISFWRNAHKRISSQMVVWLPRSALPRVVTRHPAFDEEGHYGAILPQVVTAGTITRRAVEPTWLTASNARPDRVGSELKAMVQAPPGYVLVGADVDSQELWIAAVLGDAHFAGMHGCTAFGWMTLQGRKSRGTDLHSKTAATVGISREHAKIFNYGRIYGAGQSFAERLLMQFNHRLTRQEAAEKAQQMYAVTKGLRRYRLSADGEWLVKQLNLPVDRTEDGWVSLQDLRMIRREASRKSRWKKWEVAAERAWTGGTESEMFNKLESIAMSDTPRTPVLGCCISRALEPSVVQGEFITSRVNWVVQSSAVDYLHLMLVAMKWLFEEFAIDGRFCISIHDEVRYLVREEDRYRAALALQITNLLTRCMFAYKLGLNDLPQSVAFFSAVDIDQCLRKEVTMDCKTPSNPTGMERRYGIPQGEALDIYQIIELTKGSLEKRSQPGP

mPOLγA A449T;mPOLγB = mPOLγA A449T;mPOLγB (Mus musculus;Mus musculus, UniProt P54099;Q9QZM2 26-1218;17-459, A450T|); assay: EMSA
mPOLγA A449T;mPOLγB, sequence (Q9QZM2 17-459, stated change not applied, one chain of several): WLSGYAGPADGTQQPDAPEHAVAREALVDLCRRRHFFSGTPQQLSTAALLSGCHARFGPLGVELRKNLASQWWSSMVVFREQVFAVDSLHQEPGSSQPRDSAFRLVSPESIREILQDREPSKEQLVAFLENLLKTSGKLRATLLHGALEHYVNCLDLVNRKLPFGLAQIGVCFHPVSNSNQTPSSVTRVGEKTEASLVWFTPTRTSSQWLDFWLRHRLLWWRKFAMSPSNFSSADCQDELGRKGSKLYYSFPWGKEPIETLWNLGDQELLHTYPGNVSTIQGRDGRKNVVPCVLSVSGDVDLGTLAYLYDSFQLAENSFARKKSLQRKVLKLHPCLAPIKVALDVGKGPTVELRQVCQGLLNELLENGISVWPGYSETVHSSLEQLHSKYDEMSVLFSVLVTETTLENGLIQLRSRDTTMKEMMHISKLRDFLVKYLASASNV

B1: 36/21-nt primer-template (mixed)
DNA 1: TTTTTTTTTTATCCGGGCTCCTCTAGACTCGACCGC
DNA 2: GCGGTCGAGTCTAGAGGAGCC
- binding signal (mPOLγA A449T): ~3.4 fold lower binding than WT
- binding signal (mPOLγA A449T;mPOLγB): 1.75 fold lower binding than WT holoenzyme
